Measured values reported in patent publication US20240025971A1.

How the values were obtained:
Assay in all cases: cell-based or functional assay
[1] = target: SARS-CoV-2 Beta (B.1.351) full-length Spike protein (SARS-CoV-2) (UniProt P0DTC2)
[2] = target: SARS-CoV-2 Alpha (B.1.1.7) full-length Spike protein (SARS-CoV-2) (UniProt P0DTC2)
[3] = target: SARS-CoV-2 Delta (B.1.617.2) full-length Spike protein (SARS-CoV-2) (UniProt P0DTC2)
[4] = target: SARS-CoV-2 Delta-plus (B.1.617.2.1) full-length Spike protein (SARS-CoV-2) (UniProt P0DTC2)
[5] = target: SARS-CoV-2 Gamma (P.1.B.1.1.28) full-length Spike protein (SARS-CoV-2) (UniProt P0DTC2)
[6] = target: SARS-CoV-2 Epsilon (B.1.427/9) full-length Spike protein (SARS-CoV-2) (UniProt P0DTC2)

Measured: Pseudovirus Neutralization

Anti-Nucleocapsid (Neg Control) (antibody)
> 50 µg/mL: [1] | [2] | [3] | [4] | [5] | [6]
